We go through 1 molecule from patent US20240182536A1 (MURAL ONCOLOGY, published 2024).

Assay [1] addresses T1, mouse IL-18 receptor alpha (mouse, UniProt Q61098 20-326, limits assumed).
T1 construct: also called Mouse IL18Ra; mouse IL-18R alpha
T1 sequence (looked up): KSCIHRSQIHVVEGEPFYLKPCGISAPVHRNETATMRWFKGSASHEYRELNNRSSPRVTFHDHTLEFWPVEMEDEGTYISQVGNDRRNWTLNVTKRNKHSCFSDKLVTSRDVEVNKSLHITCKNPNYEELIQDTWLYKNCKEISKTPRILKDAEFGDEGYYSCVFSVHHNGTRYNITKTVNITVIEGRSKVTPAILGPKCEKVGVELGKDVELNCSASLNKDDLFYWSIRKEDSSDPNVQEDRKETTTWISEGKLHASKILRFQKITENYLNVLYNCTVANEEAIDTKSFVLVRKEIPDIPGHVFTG
Kind of assay: Octet BLI, monoFc scaffold. How it is done: (§1) Octet 96red instrument was used to determine affinities of IL18 proteins to BP or receptors. 5-10 ug/ml analyte proteins were used for loading on Sartorius tips (AHC or SA). […] 120-180 s loading, 200 s association and 800 s dissociation were used for kinetics. 3-7 data points were used to calculate affinities.
(§2) Several mouse variants were next tested for binding affinity to mouse IL-18R alpha and mouse IL-18BP.

The target in assay [2] is T2, mouse IL-18 binding protein (mouse, UniProt Q9Z0M9 29-193).
T2 construct: also called Mouse IL18BP; Mouse IL-18BP
T2 sequence (looked up): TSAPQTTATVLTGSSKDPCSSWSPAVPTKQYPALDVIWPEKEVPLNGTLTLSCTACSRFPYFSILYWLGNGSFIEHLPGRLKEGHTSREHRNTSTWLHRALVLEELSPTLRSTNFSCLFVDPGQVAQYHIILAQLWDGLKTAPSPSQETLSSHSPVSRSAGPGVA
Kind of assay: Octet BLI, monoFc scaffold. How it is done:
as §1, §2
(In general: Biolayer interferometry detects binding as a change in optical thickness at a sensor tip.)

The target of assay [3] is T3, mouse IL-18 receptors on PathHunter U2OS mIL18-NF-kb reporter cells (mouse, UniProt Q61098 20-537; Q9Z2B1 20-614).
T3 sequence (looked up) 1: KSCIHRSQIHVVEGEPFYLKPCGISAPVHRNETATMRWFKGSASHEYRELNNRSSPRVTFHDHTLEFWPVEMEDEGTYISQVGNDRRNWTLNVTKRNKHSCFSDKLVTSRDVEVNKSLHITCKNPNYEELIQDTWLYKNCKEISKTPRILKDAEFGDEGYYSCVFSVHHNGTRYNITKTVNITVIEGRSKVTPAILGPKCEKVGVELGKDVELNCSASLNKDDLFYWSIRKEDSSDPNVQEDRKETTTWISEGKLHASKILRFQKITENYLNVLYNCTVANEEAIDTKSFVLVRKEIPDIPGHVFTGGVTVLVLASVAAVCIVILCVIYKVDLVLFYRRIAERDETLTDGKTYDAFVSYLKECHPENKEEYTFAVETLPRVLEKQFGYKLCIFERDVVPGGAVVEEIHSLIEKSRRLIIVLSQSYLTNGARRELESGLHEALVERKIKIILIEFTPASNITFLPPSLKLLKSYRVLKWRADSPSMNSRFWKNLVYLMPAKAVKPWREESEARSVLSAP
T3 sequence (looked up) 2: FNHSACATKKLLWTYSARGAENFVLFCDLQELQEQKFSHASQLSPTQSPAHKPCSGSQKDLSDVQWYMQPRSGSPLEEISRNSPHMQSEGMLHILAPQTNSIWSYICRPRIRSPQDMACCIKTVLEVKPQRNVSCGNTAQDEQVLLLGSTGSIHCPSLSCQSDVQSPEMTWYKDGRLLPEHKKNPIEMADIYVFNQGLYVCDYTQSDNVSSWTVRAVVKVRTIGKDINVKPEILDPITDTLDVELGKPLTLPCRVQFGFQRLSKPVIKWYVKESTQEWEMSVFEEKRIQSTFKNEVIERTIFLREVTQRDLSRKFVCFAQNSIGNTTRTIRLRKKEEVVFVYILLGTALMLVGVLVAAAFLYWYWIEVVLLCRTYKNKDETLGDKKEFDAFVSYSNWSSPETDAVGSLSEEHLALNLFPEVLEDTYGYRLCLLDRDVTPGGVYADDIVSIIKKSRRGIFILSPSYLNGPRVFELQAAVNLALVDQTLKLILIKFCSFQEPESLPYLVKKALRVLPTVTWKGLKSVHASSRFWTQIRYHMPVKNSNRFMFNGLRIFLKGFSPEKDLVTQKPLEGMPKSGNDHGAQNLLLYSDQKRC
Nature of the assay: cell-based or functional assay.

The target in assay [4] is T2, mouse IL-18 binding protein. Kind of assay: cell-based or functional assay.

B1: mouse IL-18 G3V, K52A on monoFc scaffold (Fc fusion, not shown: small tags and cut ends)
chain: NFVRLHSTTAVIRNINDQVLFVDKRQPVFEDMTDIDQSASEPQTRLIIYMYADSEVRGLAVTLSVKDSKMSTLSSKNKIISFEEMDPPENIDDIQSDLIFFQKRVPGHNKMEFESSLYEGHFLACQKEDDAFKLILKKKDENGDKSVMFTLTNLHQSNGGPSVFLFPPKPKDTLMISRTPEVTCVVVDVSHEDPEVKFNWYVDGVEVHNAKTKPREEQYNSTYRVVSVLTVLHQDWLNGKEYKCKVSNKALPAPIEKTISKAKGQPREPQVYTLPPSREEMTKNQVNLTCLVKGFYPSDIAVEWESNGQPENNYKTTPPVLDSDGSFFLNSTLTVDKSRWQQGNVFSCSVMHEALHNHYTQKSLSLS
As usually defined, the Kd is the free concentration of one partner at which half of the binding sites on the other are occupied at equilibrium, for simple one-to-one binding. High values mean a looser complex, low ones a tighter complex. Consider B1, for which the Kd came to 8.85 nM in assay [1] and 2 nM in assay [2]. Moreover, in assay [3], the “mouse IL-18 reporter assay EC50, without mouse IL-18BP” value was determined as 0.0007 nM. In addition, the “mouse IL-18 reporter assay EC50, +Mouse IL-18BP 50 nM” value in assay [4] stood at 0.0364 nM.
